What follows are binders tested against T1, human FGF21 receptor (FGF21R): full length human FGFR1c and full length human β-Klotho co-expressed at the … (human, UniProt P11362 22-822; Q86Z14 53-1044) (assay: cell-based or functional assay).

Row | Binder | Activity (%) = % of FGF21 activity, luciferase reporter, AM-1/D FGFR1c+β-Klotho Luc clone; antibody combined with isotype IgG2k control
1 | 16H7 (antibody, human IgG2, lambda, V domains shown) VH: not shown VL: SYVLTQPPSVSVAPGQTARITCGGNNIGSESVHWYQQKPGQAPVLVVYDDSDRPSGIPERFSGSNSGNTATLTISRVEAGDEADYYCQVWDGNSDHVVFGGGTKLTVLG | 23.5 % of FGF21 activity

Biological target: T1, human FGF21 receptor (FGF21R): full …
Experiment: cell-based or functional assay
Remark: another data set of the same source

Row | Binder | EC50 (nM), Erk-phosphorylation, human adipocyte assay
2 | 16H7 variant, heavy chain D88R + P89A + V90E (antibody, human IgG2, lambda, V domains shown) VH: QVTLKESGPVLVKPTETLTLTCTVSGFSLNNARMGVSWIRQPPGKALEWLAHIFSNDEKSYSTSLKSRLTISKDTSKSQVVLIMTNMRAEDTATYYCARSVVTGGYYYDGMDVWGQGTTVTVSS VL: SYVLTQPPSVSVAPGQTARITCGGNNIGSESVHWYQQKPGQAPVLVVYDDSDRPSGIPERFSGSNSGNTATLTISRVEAGDEADYYCQVWDGNSDHVVFGGGTKLTVLG | 0.35 nM
3 | 16H7 variant, heavy chain I83K (antibody, human IgG2, lambda, V domains shown) VH: not shown VL: SYVLTQPPSVSVAPGQTARITCGGNNIGSESVHWYQQKPGQAPVLVVYDDSDRPSGIPERFSGSNSGNTATLTISRVEAGDEADYYCQVWDGNSDHVVFGGGTKLTVLG | 0.39 nM
4 | 16H7 variant, heavy chain Deletion of Y107 (antibody, human IgG2, lambda, V domains shown) VH: QVTLKESGPVLVKPTETLTLTCTVSGFSLNNARMGVSWIRQPPGKALEWLAHIFSNDEKSYSTSLKSRLTISKDTSKSQVVLIMTNMDPVDTATYYCARSVVTGGYYDGMDVWGQGTTVTVSS VL: SYVLTQPPSVSVAPGQTARITCGGNNIGSESVHWYQQKPGQAPVLVVYDDSDRPSGIPERFSGSNSGNTATLTISRVEAGDEADYYCQVWDGNSDHVVFGGGTKLTVLG | 1.04 nM
5 | 16H7 variant, heavy chain D88R + P89A + V90E + S100I (antibody, human IgG2, lambda, V domains shown) VH: QVTLKESGPVLVKPTETLTLTCTVSGFSLNNARMGVSWIRQPPGKALEWLAHIFSNDEKSYSTSLKSRLTISKDTSKSQVVLIMTNMRAEDTATYYCARIVVTGGYYYDGMDVWGQGTTVTVSS VL: SYVLTQPPSVSVAPGQTARITCGGNNIGSESVHWYQQKPGQAPVLVVYDDSDRPSGIPERFSGSNSGNTATLTISRVEAGDEADYYCQVWDGNSDHVVFGGGTKLTVLG | 0.14 nM
6 | 16H7 variant, heavy chain E16Q + V24F + I83T + S100I + T119L (antibody, human IgG2, lambda, V domains shown) VH: QVTLKESGPVLVKPTQTLTLTCTFSGFSLNNARMGVSWIRQPPGKALEWLAHIFSNDEKSYSTSLKSRLTISKDTSKSQVVLTMTNMDPVDTATYYCARIVVTGGYYYDGMDVWGQGTLVTVSS VL: SYVLTQPPSVSVAPGQTARITCGGNNIGSESVHWYQQKPGQAPVLVVYDDSDRPSGIPERFSGSNSGNTATLTISRVEAGDEADYYCQVWDGNSDHVVFGGGTKLTVLG | 0.24 nM
7 | 16H7 (antibody, human IgG2, lambda, V domains shown) VH: not shown VL: SYVLTQPPSVSVAPGQTARITCGGNNIGSESVHWYQQKPGQAPVLVVYDDSDRPSGIPERFSGSNSGNTATLTISRVEAGDEADYYCQVWDGNSDHVVFGGGTKLTVLG | 0.53 nM
8 | 16H7 variant, heavy chain D109S (antibody, human IgG2, lambda, V domains shown) VH: not shown VL: SYVLTQPPSVSVAPGQTARITCGGNNIGSESVHWYQQKPGQAPVLVVYDDSDRPSGIPERFSGSNSGNTATLTISRVEAGDEADYYCQVWDGNSDHVVFGGGTKLTVLG | 0.31 nM
9 | 16H7 variant, heavy chain E16Q + V24F + I83T (antibody, human IgG2, lambda) heavy: QVTLKESGPVLVKPTQTLTLTCTFSGFSLNNARMGVSWIRQPPGKALEWLAHIFSNDEKSYSTSLKSRLTISKDTSKSQVVLTMTNMDPVDTATYYCARSVVTGGYYYDGMDVWGQGTTVTVSSASTKGPSVFPLAPCSRSTSESTAALGCLVKDYFPEPVTVSWNSGALTSGVHTFPAVLQSSGLYSLSSVVTVPSSNFGTQTYTCNVDHKPSNTKVDKTVERKCCVECPPCPAPPVAGPSVFLFPPKPKDTLMISRTPEVTCVVVDVSHEDPEVQFNWYVDGVEVHNAKTKPREEQFNSTFRVVSVLTVVHQDWLNGKEYKCKVSNKGLPAPIEKTISKTKGQPREPQVYTLPPSREEMTKNQVSLTCLVKGFYPSDIAVEWESNGQPENNYKTTPPMLDSDGSFFLYSKLTVDKSRWQQGNVFSCSVMHEALHNHYTQKSLSLSPGK light: not shown | 0.38 nM
10 | 16H7 variant, heavy chain E16Q + V24F + I83T + T119L (antibody, human IgG2, lambda) heavy: QVTLKESGPVLVKPTQTLTLTCTFSGFSLNNARMGVSWIRQPPGKALEWLAHIFSNDEKSYSTSLKSRLTISKDTSKSQVVLTMTNMDPVDTATYYCARSVVTGGYYYDGMDVWGQGTLVTVSSASTKGPSVFPLAPCSRSTSESTAALGCLVKDYFPEPVTVSWNSGALTSGVHTFPAVLQSSGLYSLSSVVTVPSSNFGTQTYTCNVDHKPSNTKVDKTVERKCCVECPPCPAPPVAGPSVFLFPPKPKDTLMISRTPEVTCVVVDVSHEDPEVQFNWYVDGVEVHNAKTKPREEQFNSTFRVVSVLTVVHQDWLNGKEYKCKVSNKGLPAPIEKTISKTKGQPREPQVYTLPPSREEMTKNQVSLTCLVKGFYPSDIAVEWESNGQPENNYKTTPPMLDSDGSFFLYSKLTVDKSRWQQGNVFSCSVMHEALHNHYTQKSLSLSPGK light: not shown | 0.36 nM

The next lines start with the values.

Row | EC50 (nM), Erk-phosphorylation, human adipocyte assay | Binder
11 | 0.73 nM | 16H7 variant, heavy chain I83T (antibody, human IgG2, lambda, V domains shown) VH: not shown VL: SYVLTQPPSVSVAPGQTARITCGGNNIGSESVHWYQQKPGQAPVLVVYDDSDRPSGIPERFSGSNSGNTATLTISRVEAGDEADYYCQVWDGNSDHVVFGGGTKLTVLG
12 | 0.75 nM | 16H7 variant, heavy chain V24F (antibody, human IgG2, lambda, V domains shown) VH: not shown VL: SYVLTQPPSVSVAPGQTARITCGGNNIGSESVHWYQQKPGQAPVLVVYDDSDRPSGIPERFSGSNSGNTATLTISRVEAGDEADYYCQVWDGNSDHVVFGGGTKLTVLG
13 | 1.4 nM | 16H7 variant, light chain D49A + D91A (antibody, human IgG2, lambda, V domains shown) VH: not shown VL: SYVLTQPPSVSVAPGQTARITCGGNNIGSESVHWYQQKPGQAPVLVVYADSDRPSGIPERFSGSNSGNTATLTISRVEAGDEADYYCQVWAGNSDHVVFGGGTKLTVLG
14 | 0.17 nM | 16H7 variant, heavy chain S100I (antibody, human IgG2, lambda, V domains shown) VH: not shown VL: SYVLTQPPSVSVAPGQTARITCGGNNIGSESVHWYQQKPGQAPVLVVYDDSDRPSGIPERFSGSNSGNTATLTISRVEAGDEADYYCQVWDGNSDHVVFGGGTKLTVLG
15 | 0.51 nM | 22H5 Heavy Chain, Insertion of Y107 (SEQ ID NO 405), as printed in Table 7 (antibody, human IgG2, lambda, V domains shown) VH: QVTLKESGPVLVKPTETLTLTCTVSGFSLNNARMGVSWIRQPPGKALEWLAHIFSNDEKSYSTSLKSRLTISKDTSKSQVVLIMTNMDPVDTATYYCARSVVTGGYYYYDGMDVWGQGTTVTVSS VL: SYVLTQPPSVSVAPGQTARITCGGNNIGSQSVHWYQQKPGQAPVLVVYDDSDRPSGIPERFSGSNSGNTATLTISRVEAGDEADYYCQVWDNTSDHVVFGGGTKLTVLG
16 | 0.6 nM | 16H7 variant, light chain D49Y (antibody, human IgG2, lambda, V domains shown) VH: not shown VL: SYVLTQPPSVSVAPGQTARITCGGNNIGSESVHWYQQKPGQAPVLVVYYDSDRPSGIPERFSGSNSGNTATLTISRVEAGDEADYYCQVWDGNSDHVVFGGGTKLTVLG

Each binder was assayed against T2, soluble human β-Klotho (Biacore, Example 8) (human, UniProt Q86Z14 53-996, limits assumed) (assay: Biacore competition binning; test antibody injected over soluble receptor captured on immobilized 24H11, 17D8 or 1A2.1).
T2 construct: also called soluble β-Klotho
Source text: Soluble human FGFR1c/β-Klotho ECD-Fc complex or β-Klotho was then captured on the immobilized antibody surfaces.

Row | Binder | binding result
17 | 40D2 (antibody, human IgG2, kappa, V domains shown, fully human monoclonal antibody) VH: QVQLQESGPGLVKPSQTLSLTCTVSGGSISSGGYNWSWIRQHPGKGLEWIGNIYYSGSTYYNPSLKSRVTISVDTSKNQFSLKLRSVTAADTAVYYCARENIVVIPAAIFAGWFDPWGQGTLVTVSS VL: DFVMTQTPLSLSVTPGQPASISCKSSQSLLQSDGKTYLYWYLQKPGQPPHLLIYEVSNRFSGVPDRFSGSGSGTDFTLKISRVEAEDVGVYYCMQSIQLPRTFGQGTKVEIKR | binds
18 | 17C3 (antibody, human IgG2, lambda, V domains shown, fully human monoclonal antibody from XenoMouse hybridoma) VH: QVTLKESGPVLVKPTETLTLTCTVSGFSLSNARMGVSWIRQPPGKALEWLAHIFSNDEKSYSTSLKSRLTISKDTSKSQVVLTMTNMDPVDTATYYCARILLLGAYYYYGMDVWGQGTTVTVSS VL: SYVLTQPPSVSVAPGQTARITCGGNNIGSQSVHWYQQKPGQAPVLVVYDDSDRPSGIPERFSGSNSGNTATLTISRVEAGDEADYYCQVWDSSSDHVVFGGGTKLTVLG | binds
19 | 37D3 (antibody, human IgG2, kappa, V domains shown, fully human monoclonal antibody) VH: EVHLVESGGGLAKPGGSLRLSCAASGFTFRNAWMSWVRQAPGKGLEWVGRIKSKTDGGTTDYAAPVKGRFTISRDDSKNTLYLQMNSLKTEDTAEYYCITDRVLSYYAMAVWGQGTTVTVSS VL: DIVMTQSPLSLPVTPGEPASISCRSSQSLLHSNGYNFLDWYLQKPGQSPQLLIYLGSDRASGVPDRFSGSGSGTEFTLKISRVEAEDVGLYYCMQALQTPCSFGQGTKLEIKR | binds
20 | 18G1 (antibody, human IgG2, kappa, V domains shown, fully human monoclonal antibody; full chains H5/L4) VH: EVQLLESGGGLVQPGGSLRLSCAASRFTFSTYAMSWVRQAPGKGLEWVSGISGSGVSTHYADSVKGRFTISRDNSKNTLYLQMNSLRAEDTAVYYCAKSLIVVIVYALDHWGQGTLVTVSS VL: EIVLTQSPGTLSLSPGERATLSCRASQNFDSSYLAWYQQKPGQAPRLLIYGTSSRATGIPDRFSGIGSGTDFTLTINRLEPEDFAMYYCQQYGGSPLTFGGGTEVEIKR | binds
21 | 46D11 (antibody, human IgG2, kappa, V domains shown, fully human monoclonal antibody; full chains H13/L13) VH: QVTLKEAGPVLVKPTETLTLTCTVSGFSLSNARMGVNWIRQPPGKALEWLAHIFSNDEKSYSTSLKSRLTISKDTSKSQVVLTMTNMDPVDTATYYCARVRIAGDYYYYYGMDVWGQGTTVTVSS VL: DIQMTQSPSSVSASVGDRVTITCRASQGISIWLAWYQQKPGKAPKLLIYAASSLQSGVPSRFSGSGSGTDFTLTISSLQPEDFATYYCQQANDFPITFGQGTRLEIKR | binds

From patent US20110135657A1 (published 2011)
